One data set concerns the target FGFR3 (Homo sapiens, UniProt P22607). Briefly: FGFR3 domain specificity of binding.
Another data set concerns the target T1, WT FGFR3 (Homo sapiens, UniProt P22607).
T1 construct: expressed in transfected cells; host or cells: B9 cells
The data set is described as follows: Viability of FGF-stimulated B9-FGFR3^WT cells. In kind it is cell-based. The protocol:
FIG. 1B is a graph showing viability of B9-FGFR WT cells treated with different concentrations of PRO-001. The filled bars represent the control (no PRO-001). The dotted bars represent PRO-001 treated cells.
(§1) Non-transformed rat chondrocyte cell line expressing PGFR3 in an inducible manner (RCJ-FGFR3) has been described previously (Rauchenberger R. et al. J. Biol. Chem. 2003; 278:38194-205). Cells were maintained in α-Minimum Essential Media supplemented with 15% fetal calf serum (FCS), 2 mM L-Glutamine, 100 U/ml penicillin, 100 μg/ml streptomycin, 600 μg/ml G418 (Gibco BRL, Ontario, Canada), 2 μg/ml Tetracyclin (Sigma, Ontario, Canada), and 50 μg/ml HygromycinB (Gibco BRL). […]
(§2) Cell viability was assessed by 3-(4,5-dimethylthiazol)-2,5-diphenyl tetrazolium (MTT) or (2,3-bis(2-methoxy-4-nitro-5-sulphophenyl)-5-[(phenylamino) carbonyl]-2H-tetrazolium hydroxide (XTT) dye absorbance where indicated. Cells were seeded in 96-well plates at a density of 20,000 (FDCP-1 cells), 5,000 (B9 cells) or 25,000 cells (MM cell lines) per well in culture medium. Cells were incubated in the absence or presence of one of the following cytokines: 10 ng/ml FGF9 and 5 μg/ml heparin, 1% murine IL-6, 50 ng/ml IGF-1 or 50 ng/ml human IL-6 where indicated and increasing concentrations of PRO-001, control antibody (purified human Fab) or 100 nM PD173074. […]

The next data set concerns FDCP-FGFR3^S249C cells. The data set is described as follows: FDCP-FGFR3^S249C xenograft tumor model in nude mice. Particulars: PRO-001 Fab I.P. The data set is classed as in vivo. The protocol: FIG. 8B is a graph showing the effect of PRO-001 on an FGFR3-driven xenograft tumor model. Nude mice (3 in each group), were injected S.C. at 2 locations, one on each flank (a—right flank, b—left flank), with 2×10^6 FDCP-FGFR3^S249C cells each. A week later, mice were randomized to receive PRO-001 by I.P. injection according to the schedule described in Table I or PBS as control. Tumor volume was estimated from measurements in 3 dimensions at 22 or 29 days post cell injection.
FDCP-FGFP3^S249C cells were washed 3 times in PBS then resuspended at 2×10^6 cells/200 μl PBS. The cells were injected subcutaneously (S.C.) to CD1 nude adult females (Harlan, Laboratories, Israel) with a 25 G needle at one or both mouse flanks. Treatment was initiated one week post cell inoculation at which time mice were randomized to receive PRO-001 or an equal volume of PBS alone. Dosing was preformed twice weekly by intraperitoneal (I.P.) injection for 3 weeks. Mice were followed every 2-4 days and developing tumors were measured at 3 dimensions using a caliper. Tumor volume was estimated by multiplying these 3 values.
Nude mice were injected subcutaneously at 2 locations; one on each flank, with 2×10^6 FDCP-FGFR3^S249C cells each. One week post cell injection, mice were treated with PRO-001 Fab. […]

For another data set, the system named is 8226 cells. Briefly: Viability of 8226 myeloma cells (MTT). The data set is classed as cell-based, human. The settings on record: 5 μg/ml, cells lack FGFR3 expression.
Description: FIG. 2 is a graph showing the viability of human myeloma cell lines in the presence of PRO-001. Viability is reported as the ratio between the optical density (OD) in the presence of FGF±inhibitor and the OD in the absence of FGF.
as §1, §2

Here are results for one molecule from patent US20090175866A1, “TREATMENT OF B-CELL MALIGNANCIES” (priority 2004, published 2009).

T1 sequence (P22607 23-806): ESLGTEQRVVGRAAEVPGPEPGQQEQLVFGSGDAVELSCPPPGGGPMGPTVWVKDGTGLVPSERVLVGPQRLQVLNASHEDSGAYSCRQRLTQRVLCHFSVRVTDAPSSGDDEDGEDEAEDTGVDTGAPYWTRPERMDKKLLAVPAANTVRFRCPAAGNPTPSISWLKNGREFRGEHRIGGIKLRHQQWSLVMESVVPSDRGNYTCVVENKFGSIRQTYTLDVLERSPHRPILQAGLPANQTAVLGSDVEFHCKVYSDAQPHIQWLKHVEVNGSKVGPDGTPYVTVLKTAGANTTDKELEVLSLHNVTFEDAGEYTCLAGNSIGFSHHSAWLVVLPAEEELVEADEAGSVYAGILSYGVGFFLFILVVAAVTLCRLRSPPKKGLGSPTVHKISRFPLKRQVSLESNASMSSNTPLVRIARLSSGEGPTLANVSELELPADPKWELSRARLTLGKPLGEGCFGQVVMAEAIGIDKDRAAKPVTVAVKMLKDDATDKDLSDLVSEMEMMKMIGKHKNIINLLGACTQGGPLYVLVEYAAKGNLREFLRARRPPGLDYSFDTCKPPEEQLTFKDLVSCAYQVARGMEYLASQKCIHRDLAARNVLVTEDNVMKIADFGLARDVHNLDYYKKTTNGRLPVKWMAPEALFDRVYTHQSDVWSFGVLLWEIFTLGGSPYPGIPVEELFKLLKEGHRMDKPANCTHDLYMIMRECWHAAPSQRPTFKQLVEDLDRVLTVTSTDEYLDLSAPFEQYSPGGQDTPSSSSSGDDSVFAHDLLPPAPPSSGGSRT
Chain of FGFR3 (P22607 23-806): as above

B1: PRO-001: human anti-FGFR3 Fab from HuCAL library; VH-CDR3 SEQ ID NO:1, VL-CDR3 SEQ ID NO:10; VH SEQ ID NO:19, VL SEQ ID NO:28 (antibody, V domains shown)
VH: QVQLQQSGPGLVKPSQTLSLTCAISGDSVSSNSAAWNWIRQSPGRGLEWLGRTYYRSKWYNDYAVSVKSRITINPDTSKNQFSLQLNSVTPEDTAVYYCARSYYPDFDYWGQGTLVTVSS
VL: DIELTQPPSVSVAPGQTARISCSGDALGDKYASWYQQKPGQAPVLVIYDDSDRPSGIPERFSGSNSGNTATLTISGTQAEDEADYYCQSYDGPDLWVFGGGTKLTVLGQ
With B1, the “FGFR3 Domain Specificity” value with FGFR3 was 2. Also, the “Growth inhibition of FGF stimulated B9-FGFR3^WT cells” value is “about 25%” with WT FGFR3 (1 μg/ml antibody) and “more than 60%” with WT FGFR3 (5 μg/ml antibody). The “Tumor growth relative to control mice” value with FDCP-FGFR3^S249C cells (four weeks post cell injection, 400-275 μg per dose) is listed as 10%. Moreover, the “Toxicities and weight loss over the treatment period” value in the data set with FDCP-FGFR3^S249C cells (nude mice) is reported as “No major toxicities or significant weight loss”. The “Cell growth of 8226 cells in the presence of FGF” value in the data set with 8226 cells was “resistant”.
